Laboratory results taken from PMC7935764 (Structure (London, England : 1993), 2020).

Experiments:
[1] = target: HIV integrase CTD CTD (Human immunodeficiency virus 1) (UniProt O93215); test: NMR; details: cited from earlier work
[2] = target: IN CCD^F185K (HIV-1 (NL4-3)); test: SEC-MALS + AUC + other: SEC-SAXS
[3] = target: IN CCD^F185K (HIV-1 (NL4-3)); test: AUC
[4] = target: HIV-1 integrase IN^F185H,L242A (HIV-1 (NL4-3)); test: AUC
[5] = target: HIV-1 integrase IN^F185H,L242A (HIV-1 (NL4-3)); test: SEC-MALS
SEC-MALS = target: the molecule itself; test: SEC-MALS
SEC-SAXS = target: the molecule itself; test: SEC-SAXS

Question: Which Kd [1] does the source give for “HIV integrase CTD CTD (from UniProt O93215)” here?
Answer: 1 µM

Question: With IN CCD^F185K (domain or fragment) as the molecule, how does the stoichiometry N [2] read?
Answer: 2

Question: With “HFS-IN(CTD)^220-280(L242A) (from UniProt P12497 221-281) (domain or fragment)” as the molecule, how does the KD without BI-224436 [3] read?
Answer: > 1000 µM

Question: For HIV-1 integrase IN^F185H,L242A (enzyme), which stoichiometry N [4] is on record?
Answer: 2

Question: What about the stoichiometry N [5] of the same molecule?
Answer: 2

B1: His6-FLAG-SUMO (HFS)-tagged CTD^220-270, wild type (domain or fragment)
chain: IQNFRVYYRDSRDPVWKGPAKLLWKGEGAVVIQDNSDIKVVPRRKAKIIRD
Question: For B1, which “stoichiometry N” value (SEC-MALS) is on record?
Answer: 2

B2: CTD^220-270 (domain or fragment)
chain: B1 chain
Question: With B2 as the molecule, how does the “stoichiometry N” value (SEC-SAXS) read?
Answer: 2
